3 molecules from article PMC2814526 (Journal of immunology (Baltimore, Md. : 1950), 2009) can be followed below.

For assay [1], the target named is hIL-15Rβ-mγc on 32Dβ cells (human | mouse (endogenous in 32D)) (UniProt P14784).
Assay [2] has as its target mouse IL-15 receptor complex (mIL-15Rα-mIL-15Rβ-mγc) on CTLL-2 cells (mouse) (UniProt Q60819).
For assay [3], the target named is hIL-15Rα-hIL-15Rβ-hγc complex on TF-1β cells (human (endogenous in TF-1) | human) (UniProt Q13261).
The target of assay [4] is hIL-15Rβ-mγc on 32Dβ cells (human | mouse (endogenous in 32D)) (UniProt P14784). This is another data set of the same source.
Assay [5] shares this target. This is another data set of the same source.
For assay [6], the target named is hIL-15Rα and hγc on TF-1 cells (human (endogenous in TF-1)) (UniProt Q13261). Put plainly: flow cytometry on cells. (In general: Flow cytometry measures light scatter and fluorescence of single cells or particles in a stream.)
The next assay has as its target recombinant human IL-15 (human, UniProt P40933 49-162). The experiment in a line: ELISA. A general note: ELISA stands for enzyme-linked immunosorbent assay.
Assay [7] addresses c264scTCR/hIL-15 fusion protein (human, UniProt P40933 49-162). The experiment in a line: ELISA.

As usually defined, the IC50 is the concentration that gives 50% inhibition.

Chain of hIL-15Rβ-mγc on 32Dβ cells (human | mouse (endogenous in 32D)) (P14784 27-551, chain 1 of 2): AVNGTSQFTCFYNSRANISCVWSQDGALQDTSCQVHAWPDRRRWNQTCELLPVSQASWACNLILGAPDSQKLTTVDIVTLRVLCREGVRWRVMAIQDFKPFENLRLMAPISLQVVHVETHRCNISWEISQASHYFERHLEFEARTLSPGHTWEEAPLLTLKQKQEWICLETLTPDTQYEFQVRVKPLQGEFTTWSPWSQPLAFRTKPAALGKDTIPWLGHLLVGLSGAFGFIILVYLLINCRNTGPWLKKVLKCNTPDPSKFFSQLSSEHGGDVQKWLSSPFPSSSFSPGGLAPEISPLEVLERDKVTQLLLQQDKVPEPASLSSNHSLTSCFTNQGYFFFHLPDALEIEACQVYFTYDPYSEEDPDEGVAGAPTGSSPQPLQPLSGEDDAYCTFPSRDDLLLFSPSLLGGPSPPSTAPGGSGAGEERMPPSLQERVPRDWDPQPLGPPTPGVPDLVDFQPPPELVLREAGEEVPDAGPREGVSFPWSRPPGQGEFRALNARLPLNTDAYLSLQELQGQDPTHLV
Chain of hIL-15Rβ-mγc on 32Dβ cells (human | mouse (endogenous in 32D)) (P34902 23-369, chain 2 of 2, further chain): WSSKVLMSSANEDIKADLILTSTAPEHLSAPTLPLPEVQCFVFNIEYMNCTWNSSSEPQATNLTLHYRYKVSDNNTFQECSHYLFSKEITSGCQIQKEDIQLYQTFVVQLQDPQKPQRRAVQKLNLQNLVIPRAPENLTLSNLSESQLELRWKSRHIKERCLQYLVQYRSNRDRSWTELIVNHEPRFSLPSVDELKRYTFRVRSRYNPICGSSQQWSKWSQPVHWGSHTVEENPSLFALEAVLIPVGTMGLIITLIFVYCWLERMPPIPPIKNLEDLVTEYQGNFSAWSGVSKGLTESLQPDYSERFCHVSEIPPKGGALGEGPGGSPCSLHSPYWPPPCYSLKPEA
Chain of mouse IL-15 receptor complex (mIL-15Rα-mIL-15Rβ-mγc) on CTLL-2 cells (mouse) (Q60819 33-263, chain 1 of 3): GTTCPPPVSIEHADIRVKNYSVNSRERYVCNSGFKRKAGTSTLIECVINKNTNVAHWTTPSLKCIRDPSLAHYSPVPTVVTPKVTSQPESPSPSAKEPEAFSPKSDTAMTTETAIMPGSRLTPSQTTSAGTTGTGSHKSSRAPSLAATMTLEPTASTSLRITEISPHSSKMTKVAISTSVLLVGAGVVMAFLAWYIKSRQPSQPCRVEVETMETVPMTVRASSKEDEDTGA
Chain of mouse IL-15 receptor complex (mIL-15Rα-mIL-15Rβ-mγc) on CTLL-2 cells (mouse) (P16297 27-539, chain 2 of 3, further chain): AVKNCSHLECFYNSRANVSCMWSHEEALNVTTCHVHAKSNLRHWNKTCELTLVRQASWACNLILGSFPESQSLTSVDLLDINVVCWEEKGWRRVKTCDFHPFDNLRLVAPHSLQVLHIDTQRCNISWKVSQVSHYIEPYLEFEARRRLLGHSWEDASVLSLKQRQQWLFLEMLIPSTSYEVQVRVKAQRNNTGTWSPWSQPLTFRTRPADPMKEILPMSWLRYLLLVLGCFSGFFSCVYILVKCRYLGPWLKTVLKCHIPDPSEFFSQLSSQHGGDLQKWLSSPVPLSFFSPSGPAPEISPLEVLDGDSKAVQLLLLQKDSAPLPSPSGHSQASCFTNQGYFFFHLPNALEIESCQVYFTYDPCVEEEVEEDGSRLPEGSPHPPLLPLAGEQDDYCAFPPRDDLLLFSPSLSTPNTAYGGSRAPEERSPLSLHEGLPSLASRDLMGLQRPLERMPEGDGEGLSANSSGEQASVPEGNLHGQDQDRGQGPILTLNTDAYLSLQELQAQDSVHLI
Chain of mouse IL-15 receptor complex (mIL-15Rα-mIL-15Rβ-mγc) on CTLL-2 cells (mouse) (P34902 23-369, chain 3 of 3, further chain): as the sequence (P34902 23-369, chain 2 of 2, further chain) above

“c264scTCR/hIL-15N72D fusion protein (ligand)” had an EC50 of 32Dβ cell proliferation (WST-1, 48 h) in assay [1] of 0.079 nM. In assay [2], this molecule came in with an EC50 of CTLL-2 cell proliferation (WST-1, 48 h) of 0.0184 nM.

Molecule “recombinant human IL-15 N72D mutein (ligand)” yielded an EC50 of TF-1β cell proliferation (WST-1, 48 h) in assay [3] of 0.0048 nM. In assay [1], this molecule returned an EC50 of 32Dβ cell proliferation (WST-1, 48 h) of 0.0399 nM. The molecule further yielded an EC50 of CTLL-2 cell proliferation (WST-1, 48 h) in assay [2] of 0.0092 nM. This molecule also came in with an EC50 on 32Dβ cell proliferation, rhIL-15N72D alone in assay [4] of 0.0162 nM. Also, in assay [5], the EC50 of the decrease in apoptosis of 32Dβ cells (Annexin V, 48 h) was 0.0078 nM. Also, the IC50 in assay [6] turned out to be 0.0175 nM.

B1: c264scTCR/hIL-15RαSu fusion protein (domain or fragment, human, UniProt Q13261 31-95, looked up)
chain: ITCPPPMSVEHADIWVKSYSLYSRERYICNSGFKRKAGTSSLTECVLNKATNVAHWTTPSLKCIR
Take B1: the binding result (with recombinant human IL-15; in assay [7]) was “binds” each time.
